Measurements as given in the Immune Epitope Database (IEDB).

What was measured:
Assay in all cases: IEDB peptide-MHC binding, purified MHC/competitive/radioactivity; filed as Kd, often an IC50 or EC50 that approximates it; ≥ and ≤ were set here for values at or beyond the usual limits of such assays
HLA-A*24:02 = biological target: HLA-A*24:02
HLA-A*29:02 = biological target: HLA-A*29:02
HLA-A*30:02 = biological target: HLA-A*30:02
HLA-A*23:01 = biological target: HLA-A*23:01
HLA-A*01:01 = biological target: HLA-A*01:01
HLA-A*26:01 = biological target: HLA-A*26:01
HLA-A*02:06 = conditions: source organism: Dengue virus 1 Brazil/97-11/1997
HLA-B*08:01 = biological target: HLA-B*08:01
HLA-B*40:01 = biological target: HLA-B*40:01
HLA-B*44:03 = biological target: HLA-B*44:03
HLA-B*44:02 = biological target: HLA-B*44:02
HLA-A*30:01 = biological target: HLA-A*30:01
HLA-A*32:01 = biological target: HLA-A*32:01
HLA-B*07:02 = biological target: HLA-B*07:02
[1] = source organism: SARS coronavirus Tor2
[2] = source organism: Dengue virus 1 Brazil/97-11/1997
[3] = source organism: Dengue virus 4 Philippines/H241/1956
[4] = source organism: Dengue virus 3 Martinique/1243/1999
[5] = source organism: Dengue virus 2 Jamaica/1409/1983
[6] = source organism: Mammarenavirus juninense
[7] = source organism: Mammarenavirus machupoense
[8] = source organism: Mammarenavirus choriomeningitidis
[9] = source organism: Mammarenavirus guanaritoense
[10] = source organism: Mammarenavirus tacaribeense
[11] = source organism: Dengue virus 3 Singapore/8120/1995
[12] = source organism: Mammarenavirus whitewaterense

Sequence: LYLYALIYF
- Kd (HLA-A*24:02; [1]): 1.01 nM
- Kd (HLA-A*29:02; [1]): 0.143 nM
- Kd (HLA-A*30:02; [1]): ≥ 81100 nM
- Kd (HLA-A*23:01; [1]): 0.0785 nM
- Kd (HLA-A*01:01; [1]): 5160 nM
- Kd (HLA-A*26:01; [1]): 12600 nM

Sequence: MLLNRFTMA
- Kd (HLA-A*02:06): 5.12 nM
- Kd (HLA-B*08:01; [2]): 10.2 nM

Sequence: MTDKTPVHS
- Kd (HLA-A*01:01; [3]): 6570 nM

Sequence: NEAKITDIM
- Kd (HLA-B*40:01; [2]): 83.1 nM
- Kd (HLA-B*44:03; [2]): 4130 nM

Sequence: NEGVMAVGL
- Kd (HLA-B*40:01; [4]): 226 nM
- Kd (HLA-B*44:03; [4]): 1810 nM

Sequence: NENDQYIYM
- Kd (HLA-B*44:03; [5]): 208 nM
- Kd (HLA-B*44:02; [5]): 25.5 nM

Sequence: NERRAWNFL
- Kd (HLA-B*44:03; [3]): 2090 nM

Sequence: NVSLVKPTVY
- Kd (HLA-A*24:02; [1]): ≥ 70300 nM
- Kd (HLA-A*29:02; [1]): 2410 nM
- Kd (HLA-A*30:02; [1]): 1170 nM
- Kd (HLA-A*23:01; [1]): ≥ 70000 nM
- Kd (HLA-A*01:01; [1]): 12400 nM
- Kd (HLA-A*26:01; [1]): 16300 nM

Sequence: PFWITAIYVF
- Kd (HLA-A*24:02; [1]): 1.92 nM
- Kd (HLA-A*29:02; [1]): 657 nM
- Kd (HLA-A*30:02; [1]): 16000 nM
- Kd (HLA-A*23:01; [1]): 0.189 nM
- Kd (HLA-A*01:01; [1]): 410 nM
- Kd (HLA-A*26:01; [1]): 724 nM

Sequence: PTEQVDTLL
- Kd (HLA-A*01:01; [3]): 14800 nM

Sequence: PYIGSRSQI
- Kd (HLA-A*24:02; [6]): 1080 nM
- Kd (HLA-A*29:02; [6]): ≥ 21000 nM
- Kd (HLA-A*23:01; [6]): 312 nM

Sequence: QCGDPSSFDY
- Kd (HLA-A*24:02; [7]): ≥ 70300 nM
- Kd (HLA-A*29:02; [7]): 5830 nM
- Kd (HLA-A*30:02; [7]): 3310 nM
- Kd (HLA-A*23:01; [7]): ≥ 28800 nM
- Kd (HLA-A*01:01; [7]): 1400 nM
- Kd (HLA-A*26:01; [7]): ≥ 69700 nM

Sequence: QEHETSWHY
- Kd (HLA-B*44:03; [5]): 29.6 nM
- Kd (HLA-B*44:02; [5]): 46.7 nM

Sequence: QFKDNVILL
- Kd (HLA-A*24:02; [1]): 1130 nM
- Kd (HLA-A*29:02; [1]): ≥ 21700 nM
- Kd (HLA-A*30:02; [1]): ≥ 40000 nM
- Kd (HLA-A*23:01; [1]): 1150 nM
- Kd (HLA-A*01:01; [1]): ≥ 51800 nM
- Kd (HLA-A*26:01; [1]): ≥ 27500 nM

Sequence: QLQSPGVADY
- Kd (HLA-A*29:02; [8]): ≥ 24900 nM
- Kd (HLA-A*30:02; [8]): 43 nM
- Kd (HLA-A*01:01; [8]): 290 nM
- Kd (HLA-A*26:01; [8]): 7700 nM
- Kd (HLA-A*30:01; [8]): ≥ 70400 nM
- Kd (HLA-A*32:01; [8]): ≥ 69900 nM

Sequence: RELKCGSGI
- Kd (HLA-B*40:01; [2]): 13.8 nM
- Kd (HLA-B*44:02; [2]): 119 nM

Sequence: RPLKEKEENL
- Kd (HLA-B*08:01; [5]): 1820 nM

Sequence: RPRWLDARV
- Kd (HLA-B*07:02; source organism: Dengue virus 4 Dominica/814669/1981): 1.7 nM

Sequence: RPTPKGAVMD
- Kd (HLA-B*07:02; [3]): 100 nM

Sequence: SAIFFTTSLF
- Kd (HLA-A*24:02; [9]): 452 nM
- Kd (HLA-A*29:02; [9]): 87.9 nM
- Kd (HLA-A*23:01; [9]): 80.8 nM

Sequence: SEMAEALKGM
- Kd (HLA-B*40:01; [2]): 613 nM
- Kd (HLA-B*44:03; [2]): 22.4 nM
- Kd (HLA-B*44:02; [2]): 68.3 nM

Sequence: SEMGANFRAD
- Kd (HLA-B*44:02; [2]): 137 nM

Sequence: SFYCDPKRFF
- Kd (HLA-A*24:02; [10]): 1980 nM
- Kd (HLA-A*29:02; [10]): 156 nM
- Kd (HLA-A*23:01; [10]): 491 nM

Sequence: SGALDTTSY
- Kd (HLA-A*24:02; [1]): ≥ 77600 nM
- Kd (HLA-A*29:02; [1]): 168 nM
- Kd (HLA-A*30:02; [1]): 20.9 nM
- Kd (HLA-A*23:01; [1]): ≥ 77800 nM
- Kd (HLA-A*01:01; [1]): ≥ 80600 nM
- Kd (HLA-A*26:01; [1]): ≥ 55500 nM

Sequence: SPILSITISE
- Kd (HLA-B*07:02; [5]): 2150 nM

Sequence: SPLLLTSSQQ
- Kd (HLA-B*07:02; [5]): 1220 nM

Sequence: SPTSYLDVDL
- Kd (HLA-B*07:02; [4]): 1640 nM

Sequence: SSPDAVTTY
- Kd (HLA-A*24:02; [1]): ≥ 77600 nM
- Kd (HLA-A*29:02; [1]): ≥ 21600 nM
- Kd (HLA-A*30:02; [1]): 3290 nM
- Kd (HLA-A*23:01; [1]): ≥ 77800 nM
- Kd (HLA-A*01:01; [1]): 5490 nM
- Kd (HLA-A*26:01; [1]): 9740 nM

Sequence: STVQQLTKRF
- Kd (HLA-A*26:01; [5]): 6790 nM

Sequence: TKKVRTNAA
- Kd (HLA-B*08:01; [4]): 43.6 nM

Sequence: VEMGEAAAIF
- Kd (HLA-B*40:01; [3]): 971 nM
- Kd (HLA-B*44:03; [3]): 166 nM
- Kd (HLA-B*44:02; [3]): 12.9 nM

Sequence: VEPWLRGNQF
- Kd (HLA-B*40:01; [2]): 3780 nM
- Kd (HLA-B*44:02; [2]): 73 nM

Sequence: VSSPDAVTTY
- Kd (HLA-A*24:02; [1]): ≥ 70300 nM
- Kd (HLA-A*29:02; [1]): 1840 nM
- Kd (HLA-A*30:02; [1]): 11.3 nM
- Kd (HLA-A*23:01; [1]): ≥ 70000 nM
- Kd (HLA-A*01:01; [1]): 223 nM
- Kd (HLA-A*26:01; [1]): 3700 nM

Sequence: VTTWEDVPY
- Kd (HLA-A*30:02; [11]): 248 nM
- Kd (HLA-A*01:01; [11]): 520 nM

Sequence: VVRPPFNML
- Kd (HLA-B*07:02; [3]): 20.5 nM

Sequence: VWKRFEHLCV
- Kd (HLA-A*24:02; [12]): ≥ 47600 nM
- Kd (HLA-A*29:02; [12]): ≥ 71400 nM
- Kd (HLA-A*30:02; [12]): 10500 nM
- Kd (HLA-A*23:01; [12]): 7990 nM
- Kd (HLA-A*01:01; [12]): ≥ 70400 nM
- Kd (HLA-A*26:01; [12]): ≥ 69700 nM

Sequence: WFSQRGGSY
- Kd (HLA-A*24:02; [1]): ≥ 62500 nM
- Kd (HLA-A*29:02; [1]): 0.847 nM
- Kd (HLA-A*30:02; [1]): 11 nM
- Kd (HLA-A*23:01; [1]): ≥ 77800 nM
- Kd (HLA-A*01:01; [1]): 182 nM
- Kd (HLA-A*26:01; [1]): 2160 nM

Sequence: YPFFRKLVL
- Kd (HLA-B*08:01; source organism: Vaccinia virus WR): 5.86 nM

Sequence: YTQMCDHRL
- Kd (HLA-A*01:01; [2]): 5710 nM

Sequence: YVSSIFLHL
- Kd (HLA-A*29:02; [12]): 15.7 nM
- Kd (HLA-A*30:02; [12]): 12500 nM
- Kd (HLA-A*01:01; [12]): 514 nM
- Kd (HLA-A*26:01; [12]): 1850 nM
- Kd (HLA-A*30:01; [12]): 4820 nM
- Kd (HLA-A*32:01; [12]): ≥ 51000 nM
